# Test results taken from the supplement of paper PMC7125110.
# ± gives the standard error. For some of these results: This sample holds only a part of the variants without activity.
# B1: glmS ribozyme (parent)
# chain: AUAAAAGCGCCAGAACUACAGAAAUGUAGUUGACGAGGAGGAGGUUUAUCGAAUUUUCGGCGGAUGCCUCCAAA
# What was measured:
# Settings in all cases: with glucosamine-6-phosphate
# [1] = variants of: B1; test: kcat; higher = faster cleavage; RNA array
# In short: (§1)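 The measurements used barcoded ribozyme variants on sequenced MiSeq chips, transcribed in situ by E. coli RNA polymerase and tracked at 37 °C with a hybridised Cy3 probe. Glucosamine-6-phosphate, 40 μM to 10 mM in HEPES/KCl/Mg(OAc)2 buffer, was flowed in while tiles were imaged over ~14 h. Baseline-normalised signals, also normalised to non-cleaving reference variants, gave per-tile medians that were fit to one- or two-exponential decays for kobs. kcat and KM resulted from weighted Michaelis–Menten fits across concentrations.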
# [2] = variants of: B1; test: KM; higher = weaker cofactor use; RNA array
# In short: as §1
# [3] = variants of: B1; test: self-cleavage kobs at 40 uM GlcN6P; higher = faster cleavage; RNA array
# In short: as §1
# [4] = variants of: B1; test: self-cleavage kobs at 160 uM GlcN6P; higher = faster cleavage; RNA array
# In short: as §1
# [5] = variants of: B1; test: self-cleavage kobs at 640 uM GlcN6P; higher = faster cleavage; RNA array
# In short: as §1
# [6] = variants of: B1; test: self-cleavage kobs at 2500 uM GlcN6P; higher = faster cleavage; RNA array
# In short: as §1
# [7] = variants of: B1; test: self-cleavage kobs at 10000 uM GlcN6P; higher = faster cleavage; RNA array
# In short: as §1
Variant,kcat [1] [s⁻¹],KM [2] [µM],self-cleavage kobs at 40 uM GlcN6P [3] [s⁻¹],self-cleavage kobs at 160 uM GlcN6P [4] [s⁻¹],self-cleavage kobs at 640 uM GlcN6P [5] [s⁻¹],self-cleavage kobs at 2500 uM GlcN6P [6] [s⁻¹],self-cleavage kobs at 10000 uM GlcN6P [7] [s⁻¹]
A39U,0.0425 ± 0.0086,3040 ± 720,0.000604 ± 1e-05,0.00176 ± 7.4e-05,0.00683 ± 0.00016,0.019 ± 0.00075,0.0347 ± 0.0012
U31C G59U,< 1e-05,–,< 1e-05,–,< 1e-05,–,–
A36G G63U C70A,1.84e-05 ± 7.8e-06,–,–,–,–,–,–
C16U A39U,0.0586 ± 0.022,9390 ± 4200,–,0.00114 ± 0.00038,0.00392 ± 0.00055,0.0111 ± 0.0017,0.034 ± 0.0081
U30G C58G A64C C67G C71G,4.36e-05 ± 1.6e-05,–,–,5.89e-05 ± 2e-05,–,–,–
G13A U56A,0.000767 ± 0.0001,3960 ± 750,–,2.49e-05 ± 1e-05,0.000106 ± 1.3e-05,0.000312 ± 3.9e-05,0.000519 ± 0.00011
A42G G66A U69A,0.0145 ± 0.0037,1590 ± 490,0.000356 ± 0.0001,–,–,–,0.0125 ± 0.0052
A14U A39G,0.0158 ± 0.0077,–,0.000381 ± 6.3e-05,0.000604 ± 0.00015,0.00493 ± 0.0011,0.00644 ± 0.0013,0.0136 ± 0.0025
A6U C71U,0.000302 ± 1.3e-05,2710 ± 230,–,–,5.53e-05 ± 9.2e-06,0.000149 ± 1.7e-05,0.000235 ± 2.4e-05
G38C C71U,< 1e-05,–,< 1e-05,–,< 1e-05,–,–
A39U G66C C67A,0.000462 ± 8.7e-05,1570 ± 490,–,4.03e-05 ± 1.3e-05,0.00015 ± 3.2e-05,0.000248 ± 6.1e-05,0.000455 ± 0.00013
G29A U55G,0.00132 ± 0.00029,2980 ± 960,–,5.56e-05 ± 1.3e-05,0.000305 ± 6.3e-05,0.000622 ± 0.00011,0.000954 ± 0.00021
A48C G66A,0.000159 ± 2.8e-05,–,–,< 1e-05,–,8.27e-05 ± 1.8e-05,0.000121 ± 1.4e-05
A12U G32A,0.000902 ± 5.6e-05,2110 ± 200,–,6.52e-05 ± 9.5e-06,0.000203 ± 2.1e-05,0.000498 ± 5.1e-05,0.000735 ± 0.00013
G41A C71A,0.000272 ± 3.8e-05,645 ± 210,2.7e-05 ± 8.9e-06,5.23e-05 ± 1.1e-05,0.000125 ± 1.7e-05,0.000308 ± 5.6e-05,0.000248 ± 2.8e-05
U54G G59U,3.86e-05 ± 1.5e-06,544 ± 170,–,–,–,3.03e-05 ± 9.3e-06,3.71e-05 ± 6.4e-06
